Assay results published in article PMC5234079, “Structural basis of human PCNA sliding on DNA”.

Columns and labels:
[1] = biological target: Human PCNA (proliferating cell nuclear antigen) (human); assay: crystal structure; co-crystal of PCNA with a 10 bp dsDNA, hanging drop, 20 °C, 11% PEG 3350, 0.1 M sodium acetate pH 4.5; space group H3, 2.8 Å
PCNA = PCNA (human, UniProt P12004 1-261); assay: NMR; 1H-15N TROSY titration, T73 CSP, single-site model; text gives ~0.7 mM; NMR: 100 uM PCNA, 20 mM sodium phosphate, 50 mM NaCl, pH 7.0, 20 uM DSS, 0.01% NaN3, 5% 2H2O, 35 C; conditions: protein: recombinant; tags: N-terminal His6 and PreScission site, cleaved; residual GPH- at N terminus; chain copies: 3; blunt
Chain of PCNA (P12004 whole entry): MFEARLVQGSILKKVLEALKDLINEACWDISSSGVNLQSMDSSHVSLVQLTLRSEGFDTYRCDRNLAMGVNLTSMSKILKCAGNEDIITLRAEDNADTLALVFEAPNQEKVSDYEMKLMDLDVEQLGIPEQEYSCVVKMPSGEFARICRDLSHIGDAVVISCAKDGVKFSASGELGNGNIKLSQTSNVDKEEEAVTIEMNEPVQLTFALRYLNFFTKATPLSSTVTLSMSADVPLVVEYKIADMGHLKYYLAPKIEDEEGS

Molecule	stoichiometry N [1]	Kd (PCNA)
Human PCNA (proliferating cell nuclear antigen) (natural protein)	3	–
10 bp dsDNA (dsDNA) DNA 1: ATACGATGGG DNA 2: CCCATCGTAT	–	700 ± 100 µM
